Reference: publication doi:10.1101/2025.04.14.648762, “P-Rex1 Limits the Agonist-Induced Internalisation of GPCRs Independently of its Rac-GEF Activity” (bioRxiv, 2025)

Assays:
Test in all cases: pull-down; 5 pmol P-Rex1 or P-Rex2 protein (2.5 pmol for P-Rex1 mutants) with 5 pmol GST or GST-Grk2 in 20 µl detergent-free buffer (50 mM Hepes pH 7.2, 150 mM NaCl), 1 h on ice; isolated on magnetic glutathione agarose; beads washed in buffer with 1% NP-40; western blot
Conditions in all cases: both partners purified
[1] = biological target: T1, GEF-dead His-P-Rex2 (P-Rex2^E30A,N212A) (human, UniProt Q70Z35 1-1606, E30A | N212A)
T1 construct: P-Rex2, human, with alanine mutations at Glu30 and Asn212 in the catalytic DH domain; also called GEF-dead P-Rex2; source: baculovirus-infected Sf9 cells, purified (Ni-NTA agarose, desalting); not shown: His6, N-terminal, kept

GEF-dead EE-P-Rex1 = biological target: T2, GEF-dead EE-P-Rex1 (human, UniProt Q8TCU6 1-1659, E56A | N238A)
T2 construct: P-Rex1, human, with point mutations E56A and N238A in the DH domain; also called GEF-dead P-Rex1; P-Rex1 E56A N238A; source: baculovirus-infected Sf9 cells, purified using the EE tag

His-P-Rex2 (wild type) = biological target: T3, His-P-Rex2 (wild type) (human, UniProt Q70Z35 1-1606)
T3 construct: P-Rex2, human, wild type, subcloned into pENTR3C and recombined with pDEST10; also called wild type His-P-Rex2; source: baculovirus-infected Sf9 cells, purified (Ni-NTA agarose, desalting); not shown: His6, N-terminal, kept

[2] = biological target: T4, EE-P-Rex1 (purified recombinant wild type) (human, UniProt Q8TCU6 1-1659)
T4 construct: P-Rex1, human, wild type recombinant protein; also called wild type EE-P-Rex1; source: baculovirus-infected Sf9 cells, purified using the EE tag

Measured: binding result

T3 sequence (Q70Z35 whole entry): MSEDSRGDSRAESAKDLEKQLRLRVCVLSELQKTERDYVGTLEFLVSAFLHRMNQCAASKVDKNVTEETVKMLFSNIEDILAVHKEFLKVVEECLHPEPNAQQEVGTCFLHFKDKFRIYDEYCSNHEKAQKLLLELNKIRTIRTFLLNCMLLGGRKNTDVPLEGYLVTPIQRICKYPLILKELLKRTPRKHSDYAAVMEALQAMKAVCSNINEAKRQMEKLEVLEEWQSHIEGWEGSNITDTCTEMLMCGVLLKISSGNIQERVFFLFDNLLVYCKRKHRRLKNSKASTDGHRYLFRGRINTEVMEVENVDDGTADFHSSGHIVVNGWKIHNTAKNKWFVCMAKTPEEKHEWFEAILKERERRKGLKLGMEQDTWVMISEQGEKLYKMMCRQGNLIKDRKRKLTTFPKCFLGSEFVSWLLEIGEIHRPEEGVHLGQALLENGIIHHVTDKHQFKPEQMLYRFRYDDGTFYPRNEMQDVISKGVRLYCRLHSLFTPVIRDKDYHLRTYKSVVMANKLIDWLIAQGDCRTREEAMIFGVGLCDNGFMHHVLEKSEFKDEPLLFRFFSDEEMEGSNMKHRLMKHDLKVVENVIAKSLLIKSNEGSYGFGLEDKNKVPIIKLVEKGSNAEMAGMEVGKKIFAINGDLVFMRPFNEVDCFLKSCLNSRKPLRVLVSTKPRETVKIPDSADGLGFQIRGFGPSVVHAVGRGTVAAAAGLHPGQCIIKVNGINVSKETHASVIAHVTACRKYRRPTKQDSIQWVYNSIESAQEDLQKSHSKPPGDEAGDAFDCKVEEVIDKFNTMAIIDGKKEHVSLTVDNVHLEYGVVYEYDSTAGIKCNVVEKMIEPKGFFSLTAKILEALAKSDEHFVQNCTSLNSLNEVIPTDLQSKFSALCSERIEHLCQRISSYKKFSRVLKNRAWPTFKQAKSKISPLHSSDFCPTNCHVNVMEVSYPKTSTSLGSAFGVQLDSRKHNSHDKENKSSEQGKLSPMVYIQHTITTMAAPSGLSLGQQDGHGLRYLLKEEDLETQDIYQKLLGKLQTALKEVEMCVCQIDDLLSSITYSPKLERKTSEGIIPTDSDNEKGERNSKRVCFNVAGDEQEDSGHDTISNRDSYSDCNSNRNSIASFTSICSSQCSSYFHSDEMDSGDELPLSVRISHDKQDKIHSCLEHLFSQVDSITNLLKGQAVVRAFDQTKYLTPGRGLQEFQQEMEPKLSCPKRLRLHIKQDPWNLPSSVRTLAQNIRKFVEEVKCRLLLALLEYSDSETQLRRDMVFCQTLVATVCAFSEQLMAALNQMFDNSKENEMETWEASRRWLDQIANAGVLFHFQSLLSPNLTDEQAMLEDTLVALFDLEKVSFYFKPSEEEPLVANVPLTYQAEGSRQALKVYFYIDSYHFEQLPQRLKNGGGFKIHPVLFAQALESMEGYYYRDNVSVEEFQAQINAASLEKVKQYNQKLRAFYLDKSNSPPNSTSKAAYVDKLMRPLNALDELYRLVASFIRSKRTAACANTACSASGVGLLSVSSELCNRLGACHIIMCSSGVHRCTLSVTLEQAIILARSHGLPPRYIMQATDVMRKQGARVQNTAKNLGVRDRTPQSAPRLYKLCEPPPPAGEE
T4 sequence (Q8TCU6 whole entry): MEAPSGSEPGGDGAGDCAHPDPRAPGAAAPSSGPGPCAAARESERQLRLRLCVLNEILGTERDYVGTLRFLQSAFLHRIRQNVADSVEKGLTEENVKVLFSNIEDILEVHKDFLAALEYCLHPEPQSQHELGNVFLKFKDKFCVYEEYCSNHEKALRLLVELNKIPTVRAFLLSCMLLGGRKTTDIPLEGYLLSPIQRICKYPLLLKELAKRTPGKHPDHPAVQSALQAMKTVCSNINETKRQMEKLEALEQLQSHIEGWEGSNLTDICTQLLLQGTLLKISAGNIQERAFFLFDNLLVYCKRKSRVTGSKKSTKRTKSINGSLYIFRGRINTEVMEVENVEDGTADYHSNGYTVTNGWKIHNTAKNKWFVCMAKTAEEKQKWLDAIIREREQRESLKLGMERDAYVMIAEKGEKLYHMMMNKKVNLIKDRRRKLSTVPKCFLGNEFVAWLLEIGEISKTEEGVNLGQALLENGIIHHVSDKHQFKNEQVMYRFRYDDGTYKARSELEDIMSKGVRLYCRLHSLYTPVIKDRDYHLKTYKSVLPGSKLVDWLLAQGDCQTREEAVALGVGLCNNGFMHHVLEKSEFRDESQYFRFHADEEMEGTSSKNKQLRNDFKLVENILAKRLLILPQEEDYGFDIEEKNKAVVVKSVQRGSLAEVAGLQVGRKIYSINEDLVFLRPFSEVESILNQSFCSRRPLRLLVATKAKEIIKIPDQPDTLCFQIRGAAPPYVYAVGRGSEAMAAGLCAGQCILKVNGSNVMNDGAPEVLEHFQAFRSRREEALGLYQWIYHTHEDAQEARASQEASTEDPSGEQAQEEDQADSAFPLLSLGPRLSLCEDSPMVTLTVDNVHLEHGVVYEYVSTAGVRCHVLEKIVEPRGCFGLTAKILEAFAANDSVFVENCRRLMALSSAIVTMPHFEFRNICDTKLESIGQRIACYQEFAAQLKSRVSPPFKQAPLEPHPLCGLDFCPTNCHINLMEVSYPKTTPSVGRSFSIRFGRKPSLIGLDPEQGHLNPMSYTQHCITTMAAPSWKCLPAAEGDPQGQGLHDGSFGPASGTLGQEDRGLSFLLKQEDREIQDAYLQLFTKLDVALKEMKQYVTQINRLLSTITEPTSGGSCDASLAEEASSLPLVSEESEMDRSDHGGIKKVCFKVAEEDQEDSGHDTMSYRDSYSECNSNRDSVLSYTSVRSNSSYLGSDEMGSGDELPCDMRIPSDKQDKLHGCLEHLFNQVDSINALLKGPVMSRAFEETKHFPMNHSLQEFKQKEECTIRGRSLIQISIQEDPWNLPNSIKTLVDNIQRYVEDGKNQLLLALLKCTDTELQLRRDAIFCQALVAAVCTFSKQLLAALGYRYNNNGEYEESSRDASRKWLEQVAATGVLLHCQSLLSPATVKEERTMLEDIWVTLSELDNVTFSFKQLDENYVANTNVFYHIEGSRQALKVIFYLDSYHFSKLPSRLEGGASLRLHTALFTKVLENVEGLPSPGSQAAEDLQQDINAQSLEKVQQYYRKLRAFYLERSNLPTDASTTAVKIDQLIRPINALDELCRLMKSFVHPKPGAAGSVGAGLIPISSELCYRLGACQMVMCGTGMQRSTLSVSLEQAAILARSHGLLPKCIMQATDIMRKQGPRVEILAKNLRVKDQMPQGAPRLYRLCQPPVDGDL
T1 sequence (Q70Z35 whole entry E30A/N212A, the tested form may be a part): as the sequence (Q70Z35 whole entry) above, with E30A, N212A counted along it
T2 sequence (Q8TCU6 whole entry E56A/N238A, the tested form may be a part): as the sequence (Q8TCU6 whole entry) above, with E56A, N238A counted along it

B1: GST-Grk2 (enzyme, human, UniProt P25098 1-689, looked up)
chain: MADLEAVLADVSYLMAMEKSKATPAARASKKILLPEPSIRSVMQKYLEDRGEVTFEKIFSQKLGYLLFRDFCLNHLEEARPLVEFYEEIKKYEKLETEEERVARSREIFDSYIMKELLACSHPFSKSATEHVQGHLGKKQVPPDLFQPYIEEICQNLRGDVFQKFIESDKFTRFCQWKNVELNIHLTMNDFSVHRIIGRGGFGEVYGCRKADTGKMYAMKCLDKKRIKMKQGETLALNERIMLSLVSTGDCPFIVCMSYAFHTPDKLSFILDLMNGGDLHYHLSQHGVFSEADMRFYAAEIILGLEHMHNRFVVYRDLKPANILLDEHGHVRISDLGLACDFSKKKPHASVGTHGYMAPEVLQKGVAYDSSADWFSLGCMLFKLLRGHSPFRQHKTKDKHEIDRMTLTMAVELPDSFSPELRSLLEGLLQRDVNRRLGCLGRGAQEVKESPFFRSLDWQMVFLQKYPPPLIPPRGEVNAADAFDIGSFDEEDTKGIKLLDSDQELYRNFPLTISERWQQEVAETVFDTINAETDRLEARKKAKNKQLGHEEDYALGKDCIMHGYMSKMGNPFLTQWQRRYFYLFPNRLEWRGEGEAPQSLLTMEEIQSVEETQIKERKCLLLKIRGGKQFILQCDSDPELVQWKKELRDAYREAQQLVQRVPKMKNKPRSPVVELSKVPLVQRGSANGL
notes: G protein-coupled receptor kinase 2 (Grk2), human, recombinant; also called recombinant human GST-Grk2; source: bought: Abcam (ab125620), Sf9 cell-derived recombinant
binds: all assays above
